Legend:
ERK, Pyk2, AKT, MLC = assay: Western blotting of T-cell lysates (phosphorylation) and cell morphology; assay type: cell-based, human
Protocol: (§1) Western blotting of T-cell lysates. T cells were incubated (24 hr, 37° C.) in starvation medium (RPMI medium without serum). Aliquots (5×10^6/sample) of the starved cells were preincubated (for various intervals) with different concentrations of HSP60 prior to exposure to SDF-1α (100 ng/ml, 10 min, 37° C., tissue culture conditions). These reactions were terminated by freezing the plates (−70° C., 10 min). The plates were thawed, and the cells solubilized by incubating (60 min, 4° C.) in lysis buffer [EDTA (0.5 mM), NaCL (150 mM), NaF (10 nM), Tris pH 7.5 (25 mM), Triton X-100 (1%), PMSF (200 pg/ml), and phosphatase inhibitor cocktail (1%)]. Lysates were cleared by centrifugation (30 min, 14×10^3 rpm, 4° C.), and the resulting supernatants analyzed for protein content. Sample buffer was added, the samples were boiled, and equal amounts of proteins were separated by 10% SDS-PAGE and transferred to nitrocellulose membranes. The membranes were blocked with TBST buffer [Tris pH 7.5 (20 mM), NaCl (135 mM) and Tween 20 (0.1%)] containing low-fat milk (5%), and probed with the following mAb in the same buffer: anti-phosphorylated (p) ERK (0.2 μg/ml), anti-total (t) ERK (diluted 1:20,000), anti-pPyk2 (1.5 μg/ml), anti-tPyk2 (0.2 μg/ml), anti-pAKT (diluted 1:1000), anti-tAKT (diluted 1:1000), anti-pMLC (diluted 1:250), and anti-tMLC (diluted 1:1000), anti-pSTAT3 (diluted 1:250), and anti-STAT3 (diluted 1:500). Immunoreactive protein bands were visualized using a horseradish peroxidase-conjugated goat anti-mouse Ab and the enhanced ECL system. Phosphorylation levels of the 3-5 independent experiments were estimated by densitometry, and an average percentage of phosphorylation±SD was calculated as OD of pERK/tERK, or pPyk2/tPyk2, or pAKT/tAKT, pMLC/tMLC, or pSTAT3/tSTAT3×100%.
Cell morphology. T cells (3×10^6 cells/ml) were seeded in flat-bottom, 24-well plates in 500 μl of RPMI on coverslips coated with FN (25 μg/ml). Some T cells were pretreated (1 hr, 37° C., in a 7.5% CO2 humidified atmosphere) with anti-TLRs mAb (20 μg/ml), and then with HSP60 (1 hr). After which, SDF-1α (200 ng/ml) was added, and the cells allowed to adhere (30 min, 37° C., in a 7.5% CO2 humidified atmosphere). The cells were then fixed in 3.7% paraformaldehyde and permeabilized (5 min, room temperature) with 0.5% TritonX-100. For actin visualization, cells were stained with rhodamine-labeled phalloidin (diluted 1/100), and examined with a laser-scanning confocal microscope (LSM510, Zeiss).

CD8^+ T cells = assay: Co-culture of treated CD4+CD25+ T cells with CD8+ T cells; assay type: cell-based, human; settings: 1% or more HSP60-treated CD4+CD25+ T cells; anti-CD3 24 hr
T-bet and GATA-3 = T-bet and GATA-3 expression in oxazolone-reactive mouse T cells; assay type: cell-based; settings: 1 ng/ml for 2 hr
Protocol: Western blot analysis of T-cell nuclear extracts. Purified T cells (5×10^6) were preincubated with different concentrations of HSP60 for the indicated periods of time (37° C. in a 7% CO2, humidified atmosphere). […] T cells were lysed in 10 mM HEPES, 1.5 mM MgCl2, 1 mM dithiothreitol (DTT), 1 mM PMSF, 0.5% Nonidet P-40. The lysates were incubated on ice for 10 min and centrifuged at 2000 rpm for 10 min at 4° C. The supernatants (cytoplasmic extracts) were transferred and the pellet (nuclei) was suspended in buffer containing 30 mM HEPES, 450 mM NaCl, 25% Glycerol, 0.5 mM EDTA, 6 mM DTT, 12 mM MgCl2 1 mM PMSF, 10 μg/ml leupeptin, 10 μg/ml pepstatin, 1% phosphatase inhibitor cocktail, and the suspension was incubated on ice for 30 min. The lysates were cleared by centrifugation (30 min, 14×10^3 rpm, 4° C.), and the resulting supernatants analyzed for protein content. For NFATp analysis nuclear extracts were prepared with a NE-PER Nuclear and Cytoplasmic Extraction reagent (Pierce, Rockford, Ill.) according to the manufacturer's protocol. Sample buffer was then added and, after boiling, the samples, containing equal amounts of proteins, were separated on 10% SDS-PAGE gel and transferred to nitrocellulose membranes. […]

STAT3 = STAT3 phosphorylation in human T cells; assay type: cell-based
Protocol: as §1, with “The membranes were blocked with TBST buffer [Tris pH 7.5 (20 mM), NaCl (135 mM) and Tween 20 (0.1%)] containing low-fat milk (5%), and probed with the following mAb in the same buffer: anti-phosphorylated (p) ERK (0.2 μg/ml), anti-total (t) ERK (diluted 1:20,000), anti-pPyk2 (1.5 μg/ml), anti-tPyk2 (0.2 μg/ml), anti-pAKT (diluted 1:1000), anti-tAKT (diluted 1:1000), anti-pMLC (diluted 1:250), and anti-tMLC (diluted 1:1000), anti-pSTAT3 (diluted 1:250), and anti-STAT3 (diluted 1:500). Immunoreactive protein bands were visualized using a horseradish peroxidase-conjugated goat anti-mouse Ab and the enhanced ECL system.” left out

ConA-induced hepatitis = ConA-induced hepatitis (acute liver injury); assay type: in vivo, BALB/c mice
human T cells = assay: T-cell migration assay towards SDF-1α, human T cells; assay type: cell-based; settings: 1 hr pre-incubation
Excerpt: Human cells. […] Human umbilical cord vein endothelial cells (HUVEC) were isolated from umbilical cord veins and cultured as described (Ponomaryov et al., 2000). Primary cultures were serially passaged, and passages 2 and 3 were taken for experiments.
T-cell migration assay. Migration of ^51[Cr]-labeled human and mouse T cells through FN or endothelial cells to recombinant human SDF-1α was examined in 48-well Transwell chemotaxis apparatus (5-μm pore filters, 6.5-mm diameter; Corning, N.Y.), as previously described (Zanin-Zhorov et al., 2003b). For transendothelial migration assays, 2×10^4 cells of HUVEC were layered on the filters and grown in 10% FCS M199 for 2 days before the performance of each assay. Then, HUVEC were stimulated with TNF-α (50 ng/ml) for 24 hr and washed.

[1] = human T cells, SDF-1α 100 ng/ml, 10 min
[2] = i.p. 330 μl, 500 ng/ml, 18 and 1 hr prior to ConA, 24 hr after ConA

B1: HSP60: recombinant human heat shock protein 60 (StressGen Biotechnologies) (protein)
chain: AKDVKFGADARALMLQGVDLLADAVAVTMGPKGRTVIIEQSWGSPKVTKDGVTVAKSIDLKDKYKNIGAKLVQDVANNTNEEAGDGTTTATVLARSIAKEGFEKISKGANPVEIRRGVMLAVDAVIAELKKQSKPVTTPEEIAQVATISANGDKEIGNIISDAMKKVGRKGVITVKDGKTLNDELEIIEGMKFDRGYISPYFINTSKGQKCEFQDAYVLLSEKKISSIQSIVPALEIANAHRKPLVIIAEDVDGEALSTLVLNRLKVGLQVVAVKAPGFGDNRKNQLKDMAIATGGAVFGEEGLTLNLEDVQPHDLGKVGEVIVTKDDAMLLKGKGDKAQIEKRIQEIIEQLDVTTSEYEKEKLNERLAKLSDGVAVLKVGGTSDVEVNEKKDRVTDALNATRAAVEEGIVLGGGCALLRCIPALDSLTPANEDQKIGIEIIKRTLKIPAMTIAKNAGVEGSLIVEKIMQSSSEVGYDAMAGDFVNMVEKGIIDPTKVVRTALLDAAGVASLLTTAEVVVTEIPKEEKDPGMGAMGGMGGGMGGGMF
- SDF-1α-induced polarized morphology (ERK, Pyk2, AKT, MLC; FN-coated coverslips, HSP60 1 μg/ml): inhibits
- SDF-1α-induced phosphorylation of MLC (ERK, Pyk2, AKT, MLC; HSP60 1 hr then SDF-1α 100 ng/ml, 10 min): inhibits SDF-1α-induced phosphorylation of MLC
- phosphorylation of MLC (ERK, Pyk2, AKT, MLC; HSP60 1 hr, no SDF-1α): induces phosphorylation of MLC
- SDF-1α-induced AKT phosphorylation (ERK, Pyk2, AKT, MLC; [1]): inhibits
- SDF-1α-induced ERK phosphorylation (ERK, Pyk2, AKT, MLC; [1]): inhibits
- SDF-1α-induced Pyk2 phosphorylation (ERK, Pyk2, AKT, MLC; [1]): inhibits
- inhibition of IFN-γ or TNF-α secretion in co-culture with CD8+ T cells (CD8^+ T cells): 3-4 fold
- GATA-3 expression (T-bet and GATA-3): up-regulation of GATA-3 expression
- T-bet expression (T-bet and GATA-3): down-regulation of T-bet
- phosphorylation of STAT3 (STAT3): induced phosphorylation of STAT3
- serum level of IL-6 (ConA-induced hepatitis; 2 hr after ConA): to a lesser extent
- serum level of IL-10 (ConA-induced hepatitis; 2 hr after ConA): increasing the level of IL-10
- serum level of TNF-α (ConA-induced hepatitis; 2 hr after ConA): reduced the levels of TNFα
- histopathologic examination of liver sections (ConA-induced hepatitis; 24 hr after ConA): only minimal liver damage
- GATA-3 expression in splenic T cells (ConA-induced hepatitis; P<0.05): significantly augmenting the expression
- serum ALT (ConA-induced hepatitis; [2]): significantly (P≦0.05) inhibited the secretion of AST and ALT
- serum AST (ConA-induced hepatitis; [2]): significantly (P≦0.05) inhibited the secretion of AST and ALT
- SOCS3 expression in splenic T cells (ConA-induced hepatitis; mice treated with HSP60 only): became elevated following HSP60 treatment
- SOCS3 expression in splenic T cells (ConA-induced hepatitis; mice treated with both ConA and HSP60): even more elevated
- ConA-induced T-bet expression in splenic T cells (ConA-induced hepatitis; mouse, in vivo): suppressed the ConA-induced expression
- SDF-1α-induced T-cell chemotaxis through TNF-α-activated endothelial cells (human T cells): significant inhibition of T-cell chemotaxis toward SDF-1α
- SDF-1α-induced T-cell chemotaxis through fibronectin (human T cells; various concentrations): significant inhibition of T-cell chemotaxis toward SDF-1α

Reference: patent publication US8691772B2, “HSP60, HSP60 peptides and T cell vaccines for immunomodulation” (Yeda Research and Development Co. Ltd., priority 2005, dated 2014)
